Reference: paper PMC6994669 (Nature Communications, 2020)

T1: mouse CASK N-terminal kinase domain (residues 1–323) fused with the N-terminal His6-tag (mouse, UniProt O70589 1-323)
T1 construct: mouse CASK (calcium/calmodulin-dependent serine kinase), N-terminal kinase domain, residues 1-323; Cloned into pET21a, the same vector as the C-terminally tagged PTPδ D2-His6, yet the methods call this tag N-terminal; also called His6-CASK; N-terminal kinase domain of CASK; not shown: His6, N-terminal, kept
T1 sequence (looked up): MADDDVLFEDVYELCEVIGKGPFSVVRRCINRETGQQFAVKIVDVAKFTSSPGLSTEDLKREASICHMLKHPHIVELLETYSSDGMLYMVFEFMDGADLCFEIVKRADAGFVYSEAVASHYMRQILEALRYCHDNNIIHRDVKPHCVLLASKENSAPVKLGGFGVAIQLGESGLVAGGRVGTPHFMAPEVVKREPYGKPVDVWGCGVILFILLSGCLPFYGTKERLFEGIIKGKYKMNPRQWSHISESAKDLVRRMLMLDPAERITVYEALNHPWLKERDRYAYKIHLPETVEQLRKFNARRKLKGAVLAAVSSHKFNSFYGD

B1: mouse Liprin-α3 tSAM (residues 808–1114) (domain or fragment)
chain: not shown
notes: mouse Liprin-α3, tandem SAM domain (αN, SAM1-SAM3), residues 808-1114; also called WT; source: E. coli Rosetta (DE3), purified (Glutathione Sepharose, Resource Q, GST cleaved off by HRV3c protease, Superdex 200); not shown: GST, N-terminal, cleaved

Legend:
[1] = target: T1, mouse CASK N-terminal kinase domain …; assay: pull-down; GST pull-down (Fig. 5c): Liprin-α3 tSAM and/or His6-CASK mixed with GST-PTPδ D2 at equimolar ratio (20 µM) in PBS with 0.1% Triton X-100, then immobilised on Glutathione Sepharose FF; eluted with glutathione; SDS-PAGE, Coomassie; settings: both partners purified
[2] = target: B1; assay: SPR; Biacore T200, 25 °C, 10 mM Hepes-NaOH pH 7.5, 150 mM NaCl, 0.005% Tween-20; wild-type or mutant PTPδ D2-His6 amine-coupled on a CM5 chip; wild-type or mutant Liprin-α3 tSAM injected, twofold dilutions from 40 µM to 39 nM; equilibrium KD; settings: both partners purified

binding result [1] | Kd [2] [µM] | Binder
binds |  | B1
 | 11.4 | PTPδ D2-His6 Y1506A (domain or fragment) NTEVPARNLYAYIQKLTQIETGENVTGMELEFKRLASSKAHTSRFISANLPCNKFKNRLVNIMPYESTRVCLQPIRGVEGSDYINASFLDGYRQQKAYIATQGPLAETTEDFWRMLWEHNSTIVVMLTKLREMGREKCHQYWPAERSARYQYFVVDPMAEYNMPQYILREFKVTDARDGQSRTVRQFQFTDWPEQGVPKSGEGFIDFIGQVHKTKEQFGQDGPISVHCSAGVGRTGVFITLSIVLERMRYEGVVDIFQTVKMLRTQRPAMVQTEDQYQFCYRAALEYLGSFDHAAT
 | 32 | PTPδ D2-His6 F1399A (domain or fragment) NTEVPARNLYAYIQKLTQIETGENVTGMELEFKRLASSKAHTSRFISANLPCNKFKNRLVNIMPYESTRVCLQPIRGVEGSDYINASFLDGYRQQKAYIATQGPLAETTEDFWRMLWEHNSTIVVMLTKLREMGREKCHQYWPAERSARYQYFVVDPMAEYNMPQYILREFKVTDARDGQSRTVRQAQFTDWPEQGVPKSGEGFIDFIGQVHKTKEQFGQDGPISVHCSAGVGRTGVFITLSIVLERMRYEGVVDIFQTVKMLRTQRPAMVQTEDQYQFCYRAALEYLGSFDHYAT
 | > 40 | PTPδ D2-His6 L1380A (domain or fragment) NTEVPARNLYAYIQKLTQIETGENVTGMELEFKRLASSKAHTSRFISANLPCNKFKNRLVNIMPYESTRVCLQPIRGVEGSDYINASFLDGYRQQKAYIATQGPLAETTEDFWRMLWEHNSTIVVMLTKLREMGREKCHQYWPAERSARYQYFVVDPMAEYNMPQYIAREFKVTDARDGQSRTVRQFQFTDWPEQGVPKSGEGFIDFIGQVHKTKEQFGQDGPISVHCSAGVGRTGVFITLSIVLERMRYEGVVDIFQTVKMLRTQRPAMVQTEDQYQFCYRAALEYLGSFDHYAT
 | 18 | PTPδ D2-His6 D1504A (domain or fragment) NTEVPARNLYAYIQKLTQIETGENVTGMELEFKRLASSKAHTSRFISANLPCNKFKNRLVNIMPYESTRVCLQPIRGVEGSDYINASFLDGYRQQKAYIATQGPLAETTEDFWRMLWEHNSTIVVMLTKLREMGREKCHQYWPAERSARYQYFVVDPMAEYNMPQYILREFKVTDARDGQSRTVRQFQFTDWPEQGVPKSGEGFIDFIGQVHKTKEQFGQDGPISVHCSAGVGRTGVFITLSIVLERMRYEGVVDIFQTVKMLRTQRPAMVQTEDQYQFCYRAALEYLGSFAHYAT
